The text below walks through data of PMC4482762.

The target of this assay is endogenous 14-3-3ε (UniProt P62258). Briefly: GFP-Trap of YFP-R6, Western blot. To be noted: reference: YFP-R6 wild type; sites S74. Background: In western blotting, separated proteins are transferred to a membrane and probed.

Take “PPP1R3D (R6) (from UniProt O95685) YFP-R6 S74A”: the “binding against the reference” value is listed as “lost”.
